Results: paper PMC3353895, “Crystal Structure of a Complex of DNA with One AT-Hook of HMGA1”

Target: T1, HMGA1 third AT-hook (DBD3) peptide (UniProt P17096 81-89)
T1 chain: RKPRGRPKK
Test: X-ray crystallography; crystals: 5 mM MgCl2, 0.25 mM NiCl2, MPD up to 48%; 1:2 duplex:peptide; 2.27 A; only one of two AATT sites occupied; Crystallization by vapor diffusion: 25 mM Tris-HCl pH 7.5, 25 mM ammonium acetate, 5 mM MgCl2, 0.25 mM NiCl2, 5% MPD (raised to 48%), 0.2 mM DNA, 0.4 mM peptide, 4 C
Conditions: blunt; self-complementary, 2 copies of the strand

B1: d(CGAATTAATTCG)2 (dsDNA)
DNA 1: CGAATTAATTCG
DNA 2: CGAATTAATTCG
- binding result: binds
